Reference: patent US20110301073

Experiments:
[1] = system: TALE test backbone, repeat 5 RVD HG (synthetic (Xanthomonas TALE)); details: ELISA
[2] = system: TALE test backbone, repeat 5 RVD AE (synthetic (Xanthomonas TALE)); details: ELISA
[3] = system: TALE test backbone, repeat 5 RVD RA (synthetic (Xanthomonas TALE)); details: ELISA
[4] = system: TALE test backbone, repeat 5 RVD IG (synthetic (Xanthomonas TALE)); details: ELISA
[5] = system: TALE test backbone, repeat 5 RVD HN (synthetic (Xanthomonas TALE)); details: ELISA
[6] = system: TALE test backbone, repeat 5 RVD QG (synthetic (Xanthomonas TALE)); details: ELISA
[7] = system: TALE test backbone, repeat 5 RVD AD (synthetic (Xanthomonas TALE)); details: ELISA
[8] = system: TALE test backbone, repeat 5 RVD ND (synthetic (Xanthomonas TALE)); details: ELISA
[9] = system: TALE test backbone, repeat 5 RVD AT (synthetic (Xanthomonas TALE)); details: ELISA
[10] = system: TALE test backbone, repeat 5 RVD YG (synthetic (Xanthomonas TALE)); details: ELISA
[11] = system: TALE test backbone, repeat 5 RVD AN (synthetic (Xanthomonas TALE)); details: ELISA
[12] = system: TALE test backbone, repeat 5 RVD KG (synthetic (Xanthomonas TALE)); details: ELISA
[13] = system: TALE test backbone, repeat 5 RVD LA (synthetic (Xanthomonas TALE)); details: ELISA
[14] = system: TALE test backbone, repeat 5 RVD RI (synthetic (Xanthomonas TALE)); details: ELISA
[15] = system: TALE test backbone, repeat 5 RVD RG (synthetic (Xanthomonas TALE)); details: ELISA
[16] = system: TALE test backbone, repeat 5 RVD KT (synthetic (Xanthomonas TALE)); details: ELISA
[17] = system: TALE test backbone, repeat 5 RVD HI (synthetic (Xanthomonas TALE)); details: ELISA
[18] = system: TALE test backbone, repeat 5 RVD TA (synthetic (Xanthomonas TALE)); details: ELISA
[19] = system: TALE test backbone, repeat 5 RVD TP (Xanthomonas sp. (engineered)); details: RVD TP
[20] = system: TALE test backbone, repeat 5 RVD SG (synthetic (Xanthomonas TALE)); details: ELISA
[21] = system: TALE test backbone, repeat 5 RVD NI (Xanthomonas sp. (engineered)); details: RVD NI
[22] = system: TALE test backbone, repeat 5 RVD IP (synthetic (Xanthomonas TALE)); details: ELISA
[23] = system: TALE test backbone, repeat 5 RVD DK (synthetic (Xanthomonas TALE)); details: ELISA
[24] = system: TALE test backbone, repeat 5 RVD KS (synthetic (Xanthomonas TALE)); details: ELISA
[25] = system: TALE test backbone, repeat 5 RVD HA (synthetic (Xanthomonas TALE)); details: ELISA
[26] = system: TALE test backbone, repeat 5 RVD NG (Xanthomonas sp. (engineered)); details: RVD NG
[27] = system: TALE test backbone, repeat 5 RVD NS (synthetic (Xanthomonas TALE)); details: ELISA
[28] = system: TALE test backbone, repeat 5 RVD IA (Xanthomonas sp. (engineered)); details: RVD IA
[29] = system: TALE test backbone, repeat 5 RVD NA (synthetic (Xanthomonas TALE)); details: ELISA
[30] = system: TALE test backbone, repeat 5 RVD KD (synthetic (Xanthomonas TALE)); details: ELISA
[31] = system: TALE test backbone, repeat 5 RVD AA (synthetic (Xanthomonas TALE)); details: ELISA
[32] = system: TALE test backbone, repeat 5 RVD GG (synthetic (Xanthomonas TALE)); details: ELISA
[33] = system: TALE test backbone, repeat 5 RVD QA (synthetic (Xanthomonas TALE)); details: ELISA
[34] = system: TALE test backbone, repeat 5 RVD DH (synthetic (Xanthomonas TALE)); details: ELISA
[35] = system: TALE test backbone, repeat 5 RVD SN (synthetic (Xanthomonas TALE)); details: ELISA
[36] = system: TALE test backbone, repeat 5 RVD KI (synthetic (Xanthomonas TALE)); details: ELISA
[37] = system: TALE test backbone, repeat 5 RVD HD, standard framework (SEQ 333) (Xanthomonas sp. (engineered)); details: RVD HD
[38] = system: TALE test backbone, repeat 5 RVD VG (Xanthomonas sp. (engineered)); details: RVD VG
[39] = system: POU5F1 TALEN 101125 (Xanthomonas sp. (engineered)); test: cell_activity; details: paired with 101225
[40] = system: TALE test backbone, repeat 5 RVD SN (Xanthomonas sp. (engineered)); details: RVD SN
[41] = system: TALE test backbone, repeat 5 RVD NK (Xanthomonas sp. (engineered)); details: RVD NK; other bases 0.00
[42] = system: TALE test backbone, repeat 5 RVD NN (Xanthomonas sp. (engineered)); details: RVD NN
[43] = system: TALE test backbone, repeat 5 RVD VG (synthetic (Xanthomonas TALE)); details: ELISA
[44] = system: TALE test backbone, repeat 5 RVD KN (Xanthomonas sp. (engineered)); details: RVD KN
[45] = system: TALE test backbone, repeat 5 RVD IA (synthetic (Xanthomonas TALE)); details: ELISA
[46] = system: TALE test backbone, repeat 5 RVD TP (synthetic (Xanthomonas TALE)); details: ELISA
[47] = system: TALE test backbone, repeat 5 RVD AK (Xanthomonas sp. (engineered)); details: RVD AK; other bases 0.00-0.01
[48] = system: TALE test backbone, repeat 5 RVD DH (Xanthomonas sp. (engineered)); details: RVD DH
[49] = system: TALEN 101139 (synthetic (Xanthomonas TALE)); test: cell_activity; details: paired with 101141
[50] = system: TALEN 101126 (synthetic (Xanthomonas TALE)); test: cell_activity; details: paired with 101124
[51] = system: R0-VP16 (no tandem repeats) (Xanthomonas sp. (engineered)); test: cell_activity; details: no tandem repeats
[52] = system: nR23570S-dNC (17.5 repeats without N- and C-caps) (Xanthomonas sp. (engineered)); test: cell_activity; details: mock 1.48; caps deleted

Q: “TTGACTATCCT (double strand) [CTA target]” was tested. Which binding signal (normalized ELISA) [1] did it give?
A: 1.49

Q: And the binding signal (normalized ELISA) [2]?
A: 0

Q: And the binding signal (normalized ELISA) [3]?
A: 1.64

Q: What about the binding signal (normalized ELISA) [4] of the same sequence?
A: 0.68

Q: And the binding signal (normalized ELISA) [5]?
A: 0.01

Q: And the binding signal (normalized ELISA) [6]?
A: 1.09

Q: And the binding signal (normalized ELISA) [7]?
A: 0.01

Q: And the binding signal (normalized ELISA) [8]?
A: 0.02

Q: And the binding signal (normalized ELISA) [9]?
A: 0.56

Q: And the binding signal (normalized ELISA) [10]?
A: 0.79

Q: What about the binding signal (normalized ELISA) [11] of the same sequence?
A: 0.01

Q: And the binding signal (normalized ELISA) [12]?
A: 1.29

Q: What about the binding signal (normalized ELISA) [13] of the same sequence?
A: 0.51

Q: What about the binding signal (normalized ELISA) [14] of the same sequence?
A: 0.02

Q: What about the binding signal (normalized ELISA) [15] of the same sequence?
A: 0.87

Q: And the binding signal (normalized ELISA) [16]?
A: 0.67

Q: And the binding signal (normalized ELISA) [17]?
A: 0.04

Q: What about the binding signal (normalized ELISA) [18] of the same sequence?
A: 0.76

Q: And the binding signal (normalized ELISA) [19]?
A: 1.2

Q: What about the binding signal (normalized ELISA) [20] of the same sequence?
A: 1.23

Q: What about the binding signal (normalized ELISA) [21] of the same sequence?
A: 0.02

Q: And the binding signal (normalized ELISA) [22]?
A: 0.84

Q: And the binding signal (normalized ELISA) [23]?
A: 0

Q: And the binding signal (normalized ELISA) [24]?
A: 0.81

Q: And the binding signal (normalized ELISA) [25]?
A: 1.54

Q: What about the binding signal (normalized ELISA) [26] of the same sequence?
A: 1.3

Q: And the binding signal (normalized ELISA) [27]?
A: 0.54

Q: And the binding signal (normalized ELISA) [28]?
A: 1.2

Q: And the binding signal (normalized ELISA) [29]?
A: 1.72

Q: What about the binding signal (normalized ELISA) [30] of the same sequence?
A: 0.05

Q: What about the binding signal (normalized ELISA) [31] of the same sequence?
A: 0.61

Q: What about the binding signal (normalized ELISA) [32] of the same sequence?
A: 1.52

Q: And the binding signal (normalized ELISA) [33]?
A: 1.24

Q: And the binding signal (normalized ELISA) [34]?
A: 0.03

Q: And the binding signal (normalized ELISA) [35]?
A: 0.02

Q: What about the binding signal (normalized ELISA) [36] of the same sequence?
A: 0.04

Q: What about the binding signal (normalized ELISA) [37] of the same sequence?
A: 0.09

Q: And the binding signal (normalized ELISA) [38]?
A: 0.56

Q: With “GACCCTGCCTGCTCCT (double strand) [101125 site]” as the sequence, how does the activity [39] read?
A: 5 % NHEJ

Q: Which results are given for “TTGACGATCCT (double strand) [CGA target]”?
A: binding signal (normalized ELISA) [40]: 0.92; binding signal (normalized ELISA) [1]: 0.11; binding signal (normalized ELISA) [2]: 0; binding signal (normalized ELISA) [3]: 0.53; binding signal (normalized ELISA) [4]: 0.01; binding signal (normalized ELISA) [5]: 0.86; binding signal (normalized ELISA) [6]: 0.05; binding signal (normalized ELISA) [7]: 0; binding signal (normalized ELISA) [8]: 0; binding signal (normalized ELISA) [9]: 0.76; binding signal (normalized ELISA) [10]: 0.01; binding signal (normalized ELISA) [41]: 0.15; binding signal (normalized ELISA) [42]: 0.81; binding signal (normalized ELISA) [11]: 0.87; binding signal (normalized ELISA) [43]: 0.01; binding signal (normalized ELISA) [12]: 0.2; binding signal (normalized ELISA) [13]: 0; binding signal (normalized ELISA) [14]: 0.02; binding signal (normalized ELISA) [15]: 0.12; binding signal (normalized ELISA) [16]: 0.83; binding signal (normalized ELISA) [17]: 0.04; binding signal (normalized ELISA) [18]: 0.01; binding signal (normalized ELISA) [20]: 0.2; binding signal (normalized ELISA) [21]: 0.02; binding signal (normalized ELISA) [22]: 0; binding signal (normalized ELISA) [44]: 1; binding signal (normalized ELISA) [23]: 0.15; binding signal (normalized ELISA) [24]: 0.74; binding signal (normalized ELISA) [45]: 0.02; binding signal (normalized ELISA) [25]: 0.24; binding signal (normalized ELISA) [46]: 0.01; binding signal (normalized ELISA) [27]: 0.71; binding signal (normalized ELISA) [29]: 0.41; binding signal (normalized ELISA) [30]: 0; binding signal (normalized ELISA) [31]: 0.06; binding signal (normalized ELISA) [32]: 0.25; binding signal (normalized ELISA) [47]: 0.21; binding signal (normalized ELISA) [33]: 0.03; binding signal (normalized ELISA) [48]: 0.36; binding signal (normalized ELISA) [36]: 0.02; binding signal (normalized ELISA) [37]: 0

Q: With “GGGCTCTCCCATGCAT (double strand) [101139 site]” as the sequence, how does the activity [49] read?
A: 6.7 % NHEJ

Q: How did the activity [50] turn out when “GACCCTGCCTGCT (double strand) [101126 site]” was run?
A: 2.2 % NHEJ

Q: For “GGAGCCATCTGGCCGGGT (double strand) [NT-L target (NTF3 promoter)]”, which activity (fold activation) [51] is on record?
A: 1

Q: What about the activity (fold activation) [52] of the same sequence?
A: 1.96
